Measured values as given in publication doi:10.1101/2023.08.01.551421 (bioRxiv, 2023).
Substitutions are numbered along the chain they refer to. Names may count otherwise.

Columns and labels:
[1] = biological target: GBP1 M139R, non-farnesylated (human) (UniProt P32455); assay: SEC
[2] = biological target: GBP1 M139E, non-farnesylated (human) (UniProt P32455); assay: SEC
[3] = biological target: T1, human guanylate-binding protein 1 (GBP1), wild type, non-farnesylated (human), P32455; assay: cross-linking; conditions: remark: other sources report otherwise
T1 chain: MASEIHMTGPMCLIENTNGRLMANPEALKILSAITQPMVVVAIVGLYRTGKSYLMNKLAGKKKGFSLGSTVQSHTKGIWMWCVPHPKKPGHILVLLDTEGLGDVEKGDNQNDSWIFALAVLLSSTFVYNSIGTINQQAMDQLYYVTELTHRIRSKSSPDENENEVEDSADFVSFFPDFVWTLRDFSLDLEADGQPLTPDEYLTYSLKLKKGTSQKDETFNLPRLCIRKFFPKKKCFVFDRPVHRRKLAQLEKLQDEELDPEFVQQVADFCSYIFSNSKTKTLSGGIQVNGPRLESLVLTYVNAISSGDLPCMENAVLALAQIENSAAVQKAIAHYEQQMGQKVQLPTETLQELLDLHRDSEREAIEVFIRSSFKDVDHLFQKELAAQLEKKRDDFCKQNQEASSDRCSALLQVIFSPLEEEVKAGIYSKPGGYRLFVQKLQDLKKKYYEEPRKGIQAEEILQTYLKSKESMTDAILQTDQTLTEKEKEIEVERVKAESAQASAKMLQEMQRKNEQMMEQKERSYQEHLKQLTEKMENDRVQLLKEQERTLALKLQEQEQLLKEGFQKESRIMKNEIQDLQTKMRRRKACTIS

[4] = biological target: T1, human guanylate-binding protein 1 …; assay: GTP hydrolysis assay; conditions: remark: other sources report otherwise
cross-linking = biological target: the molecule itself; assay: cross-linking
[5] = biological target: T2, human guanylate-binding protein 1 (GBP1), wild type, farnesylated (human), P32455; assay: cryo-EM structure; conditions: remark: other sources report otherwise
T2 chain: T1 chain

GTP hydrolysis assay = biological target: the molecule itself; assay: GTP hydrolysis assay
[6] = biological target: the molecule itself; assay: light scattering-based polymerization assay

GBP1 M139R, non-farnesylated (from UniProt P32455 1-592) (natural protein)
stoichiometry N [1]: 2

GBP1 M139E, non-farnesylated (from UniProt P32455 1-592) (natural protein)
stoichiometry N [2]: 2

B1: human guanylate-binding protein 1 (GBP1), wild type, non-farnesylated, P32455 1-592 (natural protein)
chain: T1 chain
stoichiometry N [3]: 2 | Kd [4]: 1900 nM

B2: GBP1 D199K, farnesylated (natural protein)
chain: T1 chain with D199K
modifications: farnesyl moiety, C-terminal (CaaX box motif)
binding result (cross-linking): binds

B3: GBP1 D199A, farnesylated (natural protein)
chain: T1 chain with D199A
modifications: farnesyl moiety, C-terminal (CaaX box motif)
binding result (cross-linking): binds

B4: human guanylate-binding protein 1 (GBP1), wild type, farnesylated, P32455 (natural protein)
chain: T1 chain
modifications: here or on the partner: farnesyl moiety, C-terminal (CaaX box motif); farnesyl moiety, C-terminal (CaaX box motif)
subunits (outstretched GBP1 dimers) in one planar disk [5]: 30

B5: GBP1 D199A, non-farnesylated (natural protein)
chain: T1 chain with D199A
binding result (cross-linking): binds

B6: GBP1 D199K, non-farnesylated (natural protein)
chain: T1 chain with D199K
binding result (cross-linking): binds

B7: GBP1 Δ207-213 variant, non-farnesylated (natural protein)
chain: MASEIHMTGPMCLIENTNGRLMANPEALKILSAITQPMVVVAIVGLYRTGKSYLMNKLAGKKKGFSLGSTVQSHTKGIWMWCVPHPKKPGHILVLLDTEGLGDVEKGDNQNDSWIFALAVLLSSTFVYNSIGTINQQAMDQLYYVTELTHRIRSKSSPDENENEVEDSADFVSFFPDFVWTLRDFSLDLEADGQPLTPDEYLTYSLGGGSGGGSQKDETFNLPRLCIRKFFPKKKCFVFDRPVHRRKLAQLEKLQDEELDPEFVQQVADFCSYIFSNSKTKTLSGGIQVNGPRLESLVLTYVNAISSGDLPCMENAVLALAQIENSAAVQKAIAHYEQQMGQKVQLPTETLQELLDLHRDSEREAIEVFIRSSFKDVDHLFQKELAAQLEKKRDDFCKQNQEASSDRCSALLQVIFSPLEEEVKAGIYSKPGGYRLFVQKLQDLKKKYYEEPRKGIQAEEILQTYLKSKESMTDAILQTDQTLTEKEKEIEVERVKAESAQASAKMLQEMQRKNEQMMEQKERSYQEHLKQLTEKMENDRVQLLKEQERTLALKLQEQEQLLKEGFQKESRIMKNEIQDLQTKMRRRKACTIS
stoichiometry N (cross-linking): 2 | fold lower dimerization affinity than wild-type (GTP hydrolysis assay): 3 fold

B8: GBP1 Δ207-213 variant, farnesylated (natural protein)
chain: B7 chain
modifications: farnesyl moiety, C-terminal (CaaX box motif)
binding result [6]: binds

B9: GBP1 Δ207-216 variant, farnesylated (natural protein)
chain: MASEIHMTGPMCLIENTNGRLMANPEALKILSAITQPMVVVAIVGLYRTGKSYLMNKLAGKKKGFSLGSTVQSHTKGIWMWCVPHPKKPGHILVLLDTEGLGDVEKGDNQNDSWIFALAVLLSSTFVYNSIGTINQQAMDQLYYVTELTHRIRSKSSPDENENEVEDSADFVSFFPDFVWTLRDFSLDLEADGQPLTPDEYLTYSLGGGSETFNLPRLCIRKFFPKKKCFVFDRPVHRRKLAQLEKLQDEELDPEFVQQVADFCSYIFSNSKTKTLSGGIQVNGPRLESLVLTYVNAISSGDLPCMENAVLALAQIENSAAVQKAIAHYEQQMGQKVQLPTETLQELLDLHRDSEREAIEVFIRSSFKDVDHLFQKELAAQLEKKRDDFCKQNQEASSDRCSALLQVIFSPLEEEVKAGIYSKPGGYRLFVQKLQDLKKKYYEEPRKGIQAEEILQTYLKSKESMTDAILQTDQTLTEKEKEIEVERVKAESAQASAKMLQEMQRKNEQMMEQKERSYQEHLKQLTEKMENDRVQLLKEQERTLALKLQEQEQLLKEGFQKESRIMKNEIQDLQTKMRRRKACTIS
modifications: farnesyl moiety, C-terminal (CaaX box motif)
binding result [6]: binds

B10: GBP1 Δ207-216 variant, non-farnesylated (natural protein)
chain: B9 chain
stoichiometry N (cross-linking): 2 | fold lower dimerization affinity than wild-type (GTP hydrolysis assay): 1.8 fold
